T1: H3 (17-32) K23me3 peptide, fluorescein-labelled, P68431
T1 chain: RKQLATKAARKSAPAT


Columns and labels:
[1] = target: T1, H3 (17-32) K23me3 peptide, …; test: fluorescence polarization; conditions: chain shown with the change
[2] = target: H3 (17-32) K23me3 peptide, fluorescein-labelled (UniProt P68431); test: fluorescence polarisation; fluorescein-labelled histone peptide 3 nM, KDM4 DTD titrated 0.1-100 μM; 30 mM HEPES, 150 mM NaCl pH 7.4, 0.01% Triton X-100

Kd [1] [µM]	Kd [2] [µM]	Binder
–	285	KDM4A-DTD Y973A (aromatic cage substitution) (domain or fragment) ALQSITAGQKVISKHKNGRFYQCEVVRLTTETFYEVNFDDGSFSDNLYPEDIVSQDCLQFGPPAEGEVVQVRWTDGQVAGAKFVASHPIQMYQVEFEDGSQLVVKRDDVYTLDEELP
–	0.85	KDM4A-DTD N931D (domain or fragment) ALQSITAGQKVISKHKNGRFYQCEVVRLTTETFYEVDFDDGSFSDNLYPEDIVSQDCLQFGPPAEGEVVQVRWTDGQVYGAKFVASHPIQMYQVEFEDGSQLVVKRDDVYTLDEELP

The next lines start with the binder.

Binder	Kd [1] [µM]	Kd [2] [µM]
KDM4A double tudor domain (KDM4A-DTD), HaloTag-tagged, wild type, O75164 N931D; D939R; D945R (protein) ALQSITAGQKVISKHKNGRFYQCEVVRLTTETFYEVDFDDGSFSRNLYPERIVSQDCLQFGPPAEGEVVQVRWTDGQVYGAKFVASHPIQMYQVEFEDGSQLVVKRDDVYTLDEELP	3.1	–
KDM4A-DTD N940A (domain or fragment) ALQSITAGQKVISKHKNGRFYQCEVVRLTTETFYEVNFDDGSFSDALYPEDIVSQDCLQFGPPAEGEVVQVRWTDGQVYGAKFVASHPIQMYQVEFEDGSQLVVKRDDVYTLDEELP	–	57.4
KDM4A-DTD N931R (domain or fragment) ALQSITAGQKVISKHKNGRFYQCEVVRLTTETFYEVRFDDGSFSDNLYPEDIVSQDCLQFGPPAEGEVVQVRWTDGQVYGAKFVASHPIQMYQVEFEDGSQLVVKRDDVYTLDEELP	–	73.9

From publication PMC5114558, “Reader domain specificity and lysine demethylase-4 family function” (Nature Communications, 2016)
